Among the data in patent US20260207704A1, “STAPLED PEPTIDES AND METHODS THEREOF” (priority 2022, published 2026) are IC50, NanoBRET Abs IC50 (bin >1.5 uM) and NanoBRET Abs IC50 values, retold here.

*1 amine or outer side, *2 acyl side, *3 side chain or, on linkers, in order; H or OH if unused. Bridges are numbered along the chain shown (N, C = ends). Primed or numbered codes have the meaning given here. [ ]: non-standard residue; d: D form. B5(4) = 2-amino-2-(pent-4-en-1-yl)hept-6-enoic acid, stapled through each of its two olefin groups with other olefin-containing amino acid residues, O=C(C(CCCC=[*:3])(CCCC=[*:4])N[*:1])[*:2]; PyrS2″ = (S)-3-amino-1-((pent-4-en-1-yloxy)carbonyl)pyrrolidine-3-carboxylic acid (olefin stapling residue), C=CCCCOC(=O)N1CC[C@@](N[*:1])(C(=O)[*:2])C1; PyrS2(5) = (S)-3-amino-1-((pent-4-en-1-yloxy)carbonyl)pyrrolidine-3-carboxylic acid, C=CCCCOC(=O)N1CC[C@@](N[*:1])(C(=O)[*:2])C1; B5″ = 2-amino-2-(pent-4-en-1-yl)hept-6-enoic acid (bis-olefin stapling residue), C=CCCCC(CCCC=C)(N[*:1])C(=O)[*:2]; 2F3MeF(3) = aromatic amino acid residue, Cc1cccc(C[C@H](N[*:1])C(=O)[*:2])c1F; Phe(3-COOH) = N[C@@H](Cc1cccc(C(=O)O)c1)C(=O)O; 2F3MeF = Cc1cccc(C[C@H](N[*:1])C(=O)[*:2])c1F; Bta = N[C@@H](Cc1csc2ccccc12)C(=O)O; αAllylPro = C=CC[C@@]1(C(=O)O)CCCN1; BztA = aromatic amino acid residue; tBuAla = CC(C)(C)C[C@H](N)C(=O)O; 3Thi = N[C@@H](Cc1ccsc1)C(=O)O; Cha = N[C@@H](CC1CCCCC1)C(=O)O; PyrS2(4) = not defined here; TfeGA = not defined here; GlnR = not defined here; PL3 = not defined here; B5 = not defined here; Aib = CC(C)(N)C(=O)O Some results are limits rather than exact numbers.

For one test, the system named is DLD1 reporter. As to the kind of experiment: reporter assay (DLD1 reporter assay). It counts as cell-based. The settings on record: read-out: DLD1 4% Abs IC50; DLD1 4%. The source says:
Various technologies can be utilized for characterizing and/or assessing provided technologies (e.g., agents (e.g., various peptides), compositions, methods, etc.) in accordance with the present disclosure. As described herein, in some embodiments, a useful technology is or comprises fluorescence polarization. In some embodiments, a useful technology assesses LogP or LogD. In some embodiments, a useful technology is or comprises a CHI LogD assay. In some embodiments, a useful technology assesses solubility. In some embodiments, a useful technology is or comprises NanoBRET. In some embodiments, a useful technology is or comprises a reporter assay (e.g., DLD1 reporter assay). In some embodiments, a useful technology is or comprises alphascreen. Certain useful protocols are described in the Examples. Those skilled in the art appreciate that suitable adjustments may be made to such protocols, e.g., according to specific conditions, agents, purposes, etc.
Various technologies can be utilized to assess technologies of the present disclosure. For example, in some embodiments, solubility, LogD, interactions with targets, etc. of various agents such as stapled peptides were assessed using technologies described in WO 2022/261257 (e.g., those in its Examples). In some embodiments, solubility, shake flask LogD, and binding to beta-catenin were assessed. In some embodiments, an assay for assessing interactions, e.g., with beta-catenin, was fluorescence polarization as described in WO 2022/261257. In some embodiments, an assay was Nano-BRET target engagement assay that assessed beta-catenin/TCF4 engagement as described in WO 2022/261257. In some embodiments, an assay was a reporter assay as reported in Example 4 of WO 2022/261257. In some embodiments, an assay was a COLO320DM proliferation assay as reported in Example 4 of WO 2022/261257.

The target in test [1] is beta-catenin (human). In words: cell-based or functional assay.
Test [2] concerns the target beta-catenin (human). As to the kind of experiment: fluorescence polarization.

Sequence of beta-catenin (human) (B6V8E6 146-665 limits assumed): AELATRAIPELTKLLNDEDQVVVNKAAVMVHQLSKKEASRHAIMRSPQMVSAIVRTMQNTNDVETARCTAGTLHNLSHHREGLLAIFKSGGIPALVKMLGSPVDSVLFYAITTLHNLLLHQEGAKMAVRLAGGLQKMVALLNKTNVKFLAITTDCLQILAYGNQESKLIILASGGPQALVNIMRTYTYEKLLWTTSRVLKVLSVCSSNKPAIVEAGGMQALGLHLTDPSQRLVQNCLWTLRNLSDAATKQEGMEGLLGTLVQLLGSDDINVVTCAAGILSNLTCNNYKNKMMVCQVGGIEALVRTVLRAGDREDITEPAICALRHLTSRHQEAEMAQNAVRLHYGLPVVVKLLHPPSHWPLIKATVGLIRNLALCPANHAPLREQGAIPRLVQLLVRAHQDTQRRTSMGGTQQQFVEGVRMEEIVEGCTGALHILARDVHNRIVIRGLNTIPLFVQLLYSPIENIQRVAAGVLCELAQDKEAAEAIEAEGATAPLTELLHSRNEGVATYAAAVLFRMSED

As for `CC(=O)N1CCC[C@]12CC=CCCCC1(CCCC=CCCCOC(=O)N3CC[C@@]4(C3)NC(=O)[C@H](CCCCNC(=O)CC[C@@H](C(=O)NC(C)(C)C(N)=O)NC(=O)[C@H](Cc3csc5ccccc35)NC(=O)[C@H](Cc3ccccc3C(F)(F)F)NC4=O)NC(=O)[C@H](Cc3ccccc3)NC(=O)[C@H](C)NC(=O)[C@H](C)NC(=O)[C@H](CN(CC(=O)O)CC(F)(F)F)NC(=O)[C@H](CC(=O)O)NC1=O)NC(=O)[C@H](CC(C)(C)C)NC(=O)[C@H](CC(=O)O)NC2=O` (single isomer, unassigned) [I-127, Ac-PL3-Asp-Npg-B5-Asp-TfeGA-Ala-Ala-Phe-Lys*3-PyrS2-2F3MeF-BztA-GlnR*3-Aib-NH2], the IC50 in the test on DLD1 reporter was 1000 to 5000 nM. In the case of `CC(=O)N1CCC[C@]12CC=CCCCC1(CCCC=CCCCOC(=O)N3CC[C@@]4(C3)NC(=O)[C@H](CCCCNC(=O)CC[C@@H](C(=O)N[C@@H](C)C(N)=O)NC(=O)[C@H](Cc3csc5ccccc35)NC(=O)[C@H](Cc3ccccc3C(F)(F)F)NC4=O)NC(=O)[C@H](Cc3ccccc3)NC(=O)[C@H](C)NC(=O)C(C)(C)NC(=O)[C@H](CN(CC(=O)O)CC(F)(F)F)NC(=O)[C@H](CC(=O)O)NC1=O)NC(=O)[C@H](CC(C)(C)C)NC(=O)[C@H](CC(=O)O)NC2=O` (single isomer, unassigned) [I-121, Ac-PL3-Asp-Npg-B5-Asp-TfeGA-Aib-Ala-Phe-Lys*3-PyrS2-2F3MeF-BztA-GlnR*3-Ala-NH2], the IC50 in the test on DLD1 reporter lay within 1000 to 5000 nM. Consider `CC(=O)N1CCC[C@]12CC=CCCCC1(CCCC=CCCCOC(=O)N3CC[C@@]4(C3)NC(=O)[C@H](CCCCNC(=O)CC[C@@H](C(=O)N[C@@H](CC(C)C)C(=O)N[C@@H](CO)C(N)=O)NC(=O)[C@H](Cc3csc5ccccc35)NC(=O)[C@H](Cc3ccccc3C(F)(F)F)NC4=O)NC(=O)[C@H](Cc3ccccc3)NC(=O)[C@H](C)NC(=O)C3(CCC3)NC(=O)[C@H](Cc3cccc(C(=O)O)c3)NC(=O)[C@H](CC(=O)O)NC1=O)NC(=O)[C@H](CC(C)(C)C)NC(=O)[C@H](CC(=O)O)NC2=O` (relative stereo) [I-140, Ac-PL3-Asp-Npg-B5-Asp-3COOHF-Cbg-Ala-Phe-Lys*3-PyrS2-2F3MeF-BztA-GlnR*3-Leu-Ser-NH2], for which, in the test with DLD1 reporter, the IC50 was at most 1000 nM. In the case of `CC(=O)N1CCC[C@]12CC=CCCCC1(CCCC=CCCCOC(=O)N3CC[C@@]4(C3)NC(=O)[C@H](CCCCNC(=O)CC[C@@H](C(=O)N[C@@H](CC(C)C)C(=O)N[C@@H](CO)C(N)=O)NC(=O)[C@H](Cc3csc5ccccc35)NC(=O)[C@H](Cc3ccccc3C(F)(F)F)NC4=O)NC(=O)[C@H](Cc3ccccc3)NC(=O)[C@H](C)NC(=O)C(C)(C)NC(=O)[C@H](Cc3cccc(C(=O)O)c3)NC(=O)[C@H](CC(=O)O)NC1=O)NC(=O)[C@H](CC(C)(C)C)NC(=O)[C@H](CC(N)=O)NC2=O` (relative stereo) [I-144, Ac-PL3-Asn-Npg-B5-Asp-3COOHF-Aib-Ala-Phe-Lys*3-PyrS2-2F3MeF-BztA-GlnR*3-Leu-Ser-NH2], the IC50 in the test on DLD1 reporter was in the range of 1000 to 5000 nM.

B1: I-104 (peptide)
peptide: Ac-[PL3]D[tBuAla][B5]D[Phe(3-COOH)]AAFK[PyrS2(4)][2F3MeF][Bta][GlnR]L-NH2
modifications: staple 1-4; bridge 10-14; not fully specified (residue 10); printed as Ac-PL3-Asp-Npg-B5-Asp-3COOHF-Ala-Ala-Phe-Lys*3-PyrS2-2F3MeF-BztA-GlnR*3-Leu-NH2; reading uncertain; also: PyrS2 tied into a staple, partner not placed
With B1, in the test with beta-catenin (human) [1], the NanoBRET Abs IC50 (bin >1.5 uM) was under 3000 nM. For the same molecule, the IC50 in the test with beta-catenin (human) [2] was under 50 nM.

B2: I-106 (peptide)
peptide: Ac-[PL3]D[Cha][B5]D[Phe(3-COOH)]AAFK[PyrS2(4)][2F3MeF][Bta][GlnR]L-NH2
modifications: staple 1-4; bridge 10-14; not fully specified (residue 10); printed as Ac-PL3-Asp-Cha-B5-Asp-3COOHF-Ala-Ala-Phe-Lys*3-PyrS2-2F3MeF-BztA-GlnR*3-Leu-NH2; reading uncertain; also: PyrS2 tied into a staple, partner not placed
B2: the NanoBRET Abs IC50 (bin >1.5 uM) with beta-catenin (human) [1] is under 3000 nM. The IC50 with beta-catenin (human) [2] is under 50 nM.

B3: I-121 (peptide)
peptide: Ac-[αAllylPro]D[tBuAla][B5(4)]D[TfeGA][Aib]AFK[PyrS2(5)][2F3MeF][Bta][GlnR]A-NH2
modifications: bridge 10-14; not fully specified (bridges); reading uncertain; also: Lys*3 and GlnR*3 marked *3
In the test with beta-catenin (human) [1], B3 displayed a NanoBRET Abs IC50 (bin >1.5 uM) of under 3000 nM. In the test with beta-catenin (human) [2], this molecule gave an IC50 of under 50 nM.

B4: I-120 (peptide)
peptide: Ac-[αAllylPro]D[tBuAla][B5″]D[TfeGA][Aib]AFK[PyrS2″][2F3MeF][Bta][GlnR]A-NH2
modifications: bridge 10-14; not fully specified (bridges); reading uncertain; also: Lys*3 and GlnR*3 marked *3
In turn, B4 displayed a NanoBRET Abs IC50 (bin >1.5 uM) with beta-catenin (human) [1] of under 3000 nM. In the test with beta-catenin (human) [2], this molecule displayed an IC50 of under 50 nM.

B5: I-1 (peptide)
peptide: Ac-[PL3]DL[B5]DDAAFK[PyrS2(4)][3Thi][Bta][GlnR]-NH2
modifications: staple 1-4; bridge 10-14; not fully specified (residue 10); printed as Ac-PL3-Asp-Leu-B5-Asp-Asp-Ala-Ala-Phe-dLys*3-PyrS2-3Thi-BztA-GlnR*3-NH2; reading uncertain; also: PyrS2 tied into a staple, partner not placed
Consider B5, for which the NanoBRET Abs IC50 with beta-catenin (human) [1] is over 10000 nM. Moreover, in the test with beta-catenin (human) [2], the IC50 was under 50 nM.

B6: I-97 (peptide)
peptide: Ac-[PL3]D[Cha][B5]D[Phe(3-COOH)]AAFK[PyrS2″][2F3MeF(3)][BztA][GlnR]A-NH2
modifications: staple 1-4 (inferred); bridge 10-14; not fully specified (residue 10, bridges); printed as Ac-PL3-Asp-Cha-B5-Asp-3COOHF-Ala-Ala-Phe-Lys*3-PyrS2-2F3MeF-BztA-GlnR*3-Ala-NH2; reading uncertain; also: Lys10 and GlnR14 marked *3
In the test with beta-catenin (human) [1], B6 gave a NanoBRET Abs IC50 (bin >1.5 uM) of under 3000 nM. This molecule also yielded an IC50 in the test with beta-catenin (human) [2] of under 50 nM.

B7: I-101 (peptide)
peptide: Ac-[PL3]D[tBuAla][B5]D[Phe(3-COOH)][Cha]AFK[PyrS2(4)][2F3MeF][Bta][GlnR]A-NH2
modifications: staple 1-4; bridge 10-14; not fully specified (residue 10); printed as Ac-PL3-Asp-Npg-B5-Asp-3COOHF-Cha-Ala-Phe-Lys*3-PyrS2-2F3MeF-BztA-GlnR*3-Ala-NH2; reading uncertain; also: PyrS2 tied into a staple, partner not placed
In the case of B7, the NanoBRET Abs IC50 (bin >1.5 uM) with beta-catenin (human) [1] was under 3000 nM. The IC50 in the test with beta-catenin (human) [2] was under 50 nM.
